This note sets out measurements from US20210238276A1 (INTEGRAL MOLECULAR, published 2021).

In general, Kd refers to the equilibrium constant for the complex coming apart. The low end stands for a tighter complex, the high end for a looser complex.

For assay [1], the target named is T1, mouse GLUT4 (mmGLUT4) (mouse, UniProt P14142 1-509).
T1 construct: whole, on cells; Also tested as endogenous protein in murine 3T3-L1 adipocytes; also called endogenous GLUT4 of 3T3-L1 adipocytes
T1 sequence (looked up): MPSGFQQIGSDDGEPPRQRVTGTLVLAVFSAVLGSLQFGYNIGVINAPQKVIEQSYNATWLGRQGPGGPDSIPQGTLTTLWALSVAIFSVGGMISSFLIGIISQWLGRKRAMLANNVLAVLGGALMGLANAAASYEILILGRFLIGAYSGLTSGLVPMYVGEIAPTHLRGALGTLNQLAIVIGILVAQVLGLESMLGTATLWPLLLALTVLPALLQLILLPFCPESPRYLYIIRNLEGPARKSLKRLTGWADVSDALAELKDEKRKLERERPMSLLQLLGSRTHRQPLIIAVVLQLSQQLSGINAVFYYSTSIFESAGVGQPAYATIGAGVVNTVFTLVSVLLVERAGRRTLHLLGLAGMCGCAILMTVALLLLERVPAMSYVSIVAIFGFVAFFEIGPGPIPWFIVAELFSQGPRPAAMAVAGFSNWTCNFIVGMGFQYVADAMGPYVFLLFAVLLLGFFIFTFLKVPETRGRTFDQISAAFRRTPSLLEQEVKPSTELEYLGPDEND
Put plainly: immunofluorescence, surface of 3T3-L1 adipocytes (data not shown). The procedure: (§1) Adipocytes, between 7-8 days post-differentiation, were serum-starved for 3 hours in Dulbecco's modified Eagle's medium with […] bicarbonate and 20 mM HEPES pH 7.4, prior to stimulation for 20 minutes at 37° C. with or without 170 nM human insulin (Sigma Aldrich) prepared in the same media with 2% BSA. Adipocytes were washed twice with ice-cold PBS with calcium and magnesium (PBS+/+) and remained on ice for all subsequent steps.
(§2) Adipocytes were blocked with 10% Normal Goat Serum (NGS) in PBS+/+ for 30 minutes on ice before adding test antibodies at 10 ug/ml in 10% NGS. Primary antibodies were incubated for 2 hours, then washed 2× with PBS+/+. Cells were subsequently fixed for 5 minutes in 4% paraformaldehyde (PFA), washed 2× with PBS+/+, and then stained with secondary antibody (AF488 conjugated Goat anti-human, Jackson Immunoresearch) diluted 1:200 in 10% NGS. Secondary antibody was incubated for 1 hour, after washing 3× with PBS+/+. For intracellular staining, cells were fixed prior to the blocking step and permeabilized with 10% NGS containing 0.2% Saponin. The 1F8 antibody was used at 1 μg/ml, and detected using AF647-conjugated goat anti-mouse secondary antibody diluted 1:400 (Jackson Immunoresearch). Alexafluor 488 was visualized using the B-2EC cube with an exposure time of 1.5 seconds. Alexafluor 647 was visualized using the Cy5 cube with an exposure time of 2 seconds.

Assay [2] addresses T1, mouse GLUT4 (mmGLUT4). Kind of assay: immunofluorescence, permeabilized 3T3-L1 adipocytes (data not shown). The procedure: as §1, §2
The target of assay [3] is T2, human GLUT4 (hsGLUT4), wild type (UniProt P14672 1-509).
T2 chain: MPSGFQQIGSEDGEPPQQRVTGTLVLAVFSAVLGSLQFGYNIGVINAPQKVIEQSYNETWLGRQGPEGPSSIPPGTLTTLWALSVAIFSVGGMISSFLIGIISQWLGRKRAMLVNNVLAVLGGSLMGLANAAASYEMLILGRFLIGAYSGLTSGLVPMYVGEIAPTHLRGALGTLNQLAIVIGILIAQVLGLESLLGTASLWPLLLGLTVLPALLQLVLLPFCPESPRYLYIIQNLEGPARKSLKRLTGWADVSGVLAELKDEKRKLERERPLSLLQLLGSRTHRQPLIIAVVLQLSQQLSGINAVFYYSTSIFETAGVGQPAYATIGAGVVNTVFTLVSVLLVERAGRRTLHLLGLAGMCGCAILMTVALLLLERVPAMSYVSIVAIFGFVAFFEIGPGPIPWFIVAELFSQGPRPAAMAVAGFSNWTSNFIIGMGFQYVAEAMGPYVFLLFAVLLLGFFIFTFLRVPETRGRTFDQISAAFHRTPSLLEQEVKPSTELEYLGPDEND
Kind of assay: BLI; avid. On the technique in general: Biolayer interferometry detects binding as a change in optical thickness at a sensor tip.

The target of the next assay is T3, hsGLUT4 Y159A (human, UniProt P14672 1-509).
T3 sequence: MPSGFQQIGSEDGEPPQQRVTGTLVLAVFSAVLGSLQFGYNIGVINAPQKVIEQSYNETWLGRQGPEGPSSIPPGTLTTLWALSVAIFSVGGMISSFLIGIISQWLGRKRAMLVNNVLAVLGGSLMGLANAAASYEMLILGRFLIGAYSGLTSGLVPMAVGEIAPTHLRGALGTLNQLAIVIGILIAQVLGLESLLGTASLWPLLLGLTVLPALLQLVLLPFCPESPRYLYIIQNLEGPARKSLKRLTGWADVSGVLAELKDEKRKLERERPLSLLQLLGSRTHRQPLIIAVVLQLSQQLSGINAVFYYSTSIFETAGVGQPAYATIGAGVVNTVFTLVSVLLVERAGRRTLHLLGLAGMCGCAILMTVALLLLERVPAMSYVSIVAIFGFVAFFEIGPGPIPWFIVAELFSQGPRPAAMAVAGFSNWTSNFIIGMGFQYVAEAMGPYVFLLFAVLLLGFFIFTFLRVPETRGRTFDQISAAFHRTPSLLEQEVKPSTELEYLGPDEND
Put plainly: flow cytometry, alanine-scan library in HEK-293T, with cytochalasin B. On the technique in general: Flow cytometry measures light scatter and fluorescence of single cells or particles in a stream.

B1: AB105 (Fc fusion)
scFv: ALTQPSSVSANPGETVEITCSGDSSYYGWYQQKSPGSAPVTVIYANTNRPSDIPSRFSGSASGSTATLTITGVQAEDEAVYYCGSADSTYAGIFGAGTTLTVLGQSSRSSGGGGSSGGGGSAVTLDESGGGLQTPGGALSLICKASGFTFSSYTMNWVRQAPGKGLEWVGVISNSGRTTNYGAAVQGRATISRDNGQSTVRLQLNNLRAEDTGTYYCAKSSASASCAWWAGRSYPCSANRIDAWGHGTEVIVSS
notes: Bivalent scFv-Fc; also called MAb AB105; not shown: Fc fragment of human IgG1, cloned in frame with the scFv
On to B1, for which the binding result in the assay with mouse GLUT4 (mmGLUT4) [1] is on record as “binds”.

B2: AB111 (Fc fusion)
scFv: ALTQPSSVSANPGETVKITCSGSGSWYGWFQQKSPGSAPVTVIYSNDKRPSDIPSRFSGSKSGSTSTLTITGVQVEDEAVYYCGNWDIFGAGTTLTVLGQSSRSSGGGGSSGGGGSAVTLDESGGGLQTPGGALSLVCKASGFTFSSHGMGWVRQAPGKGLEWVASISTGRYTFYAPAVKGRATISRDNGQSTVRLQLNNLRAEDTATYYCTKCAGLNGCGGGEIDAWGHGTEVIVSS
notes: Bivalent scFv-Fc; also called MAb AB111; not shown: Fc fragment of human IgG1, cloned in frame with the scFv
Consider B2, for which the binding result with mouse GLUT4 (mmGLUT4) [2] is on record as “binds”. This molecule yielded a Kd in assay [3] of 0.56 nM.

B3: AB102 (Fc fusion)
scFv: ALTQPSSVSANLGGTVKITCSGGGSYGYGWYQQKSPGSAPVTVIYSNDQRPSDIPSRFSGSKSGSTATLTITGVRAEDEAIYYCGSTDSDYVGIFGAGTTLTVLGQSSRSSGGGGSSGGGGSAVTLDESGGGLQTPGGTLSLVCKASGFDFSSYATIWVRQAPGKGLEWVAGISGTGTGSSTGYAPAVKGRATISRDNGQSTVRLQLNNLRAEDTGSYFCAKSTGYGDSWIYPDSIDAWGHGTEVIVSS
notes: also called MAb AB102; not shown: Fc fragment of human IgG1, cloned in frame with the scFv
As for B3, in the assay with mouse GLUT4 (mmGLUT4) [2], the binding result was “binds”. This molecule also came in with a % of binding to wild type GLUT4 with hsGLUT4 Y159A of 11%.

B4: AB108 (Fc fusion)
scFv: ALTQPSSVSANLGGTVKITCSGSSGSYGWYQQKAPGSAPVTLIYRNDKRPSDIPSRFSGSESGSTGTLTITGVQAEDEAVYFCGGYDSSAGYAAFGAGTTLTVLGQSSRSSGGGGSSGGGGSAVTLDESGGGLQTPGGALSLVCKASGFTFSSHGMGWVRQAPGKGLEWVGSISTGRYTFYAPAVKGRATISRDNGQSTLRLQLNNLRAEDTGTYYCTKCAGLNGCGGGEIDAWGHGTEVIVSS
notes: Bivalent scFv-Fc; also called MAb AB108; not shown: Fc fragment of human IgG1, cloned in frame with the scFv
Regarding B4, the Kd in assay [3] worked out at 1.8 nM. This lies in the single-digit nanomolar range.
